Assay results taken from patent US20180155451A1 (published 2018).

T1: FcγRIIb (human, UniProt P31994 43-217)
T1 construct: extracellular domain; also called FcgRIIb; 2b; not shown: His tag at the C terminus
T1 sequence (looked up): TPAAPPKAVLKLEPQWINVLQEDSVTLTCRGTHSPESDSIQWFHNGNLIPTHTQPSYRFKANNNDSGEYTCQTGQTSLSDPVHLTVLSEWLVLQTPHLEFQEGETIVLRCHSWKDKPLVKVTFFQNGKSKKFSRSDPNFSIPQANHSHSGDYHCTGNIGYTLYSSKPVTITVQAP

T2: FcγRIIa H (human, UniProt P12318 34-217)
T2 construct: extracellular domain; Soluble His-tagged extracellular domain expressed in FreeStyle293 cells; also called FcγRIIa type H; FcgRIIa H; not shown: His tag attached to the C terminus
T2 sequence (looked up): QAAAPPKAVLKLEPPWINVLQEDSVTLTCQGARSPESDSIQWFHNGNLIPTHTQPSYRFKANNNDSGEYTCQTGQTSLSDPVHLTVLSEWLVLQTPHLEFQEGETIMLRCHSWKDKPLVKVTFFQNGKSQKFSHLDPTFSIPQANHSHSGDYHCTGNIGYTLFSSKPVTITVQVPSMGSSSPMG

T3: FcγRIIb (human, UniProt P31994 43-217)
T3 construct: extracellular domain; Soluble His-tagged extracellular domain expressed in FreeStyle293 cells; also called FcgRIIb; 2b; not shown: His tag attached to the C terminus
T3 sequence (looked up): T1 sequence (looked up)

B1: GpH7-A5/GpH7-B3 variant L328_07I/GpL16-k0 (antibody, human IgG1, kappa)
heavy 1: not shown
heavy 2: not shown
light: DIVMTQSPLSLPVTPGEPASISCQASESLVHSNRNTYLHWYLQKPGQSPQLLIYKVSNRFSGVPDRFSGSGSGTDFTLKISRVEAEDVGVYYCSQNTHVPPTFGQGTKVEIERTVAAPSVFIFPPSDEQLKSGTASVVCLLNNFYPREAKVQWKVDNALQSGNSQESVTEQDSKDSTYSLSSTLTLSKADYEKHKVYACEVTHQGLSSPVTKSFNRGEC
notes: heterodimerized IgG1; alteration in the GpH7-B3 H chain only; also called He Ab
B2: GpH7-A5/GpH7-B3 variant L328_13S/GpL16-k0 (antibody, human IgG1, kappa)
heavy 1: not shown
heavy 2: not shown
light: B1 light
notes: as for B1
B3: GpH7-A5/GpH7-B3 variant N325_13S/GpL16-k0 (antibody, human IgG1, kappa)
heavy 1: not shown
heavy 2: not shown
light: B1 light
notes: as for B1
B4: GpH7-A5/GpH7-B3 variant N325_20W/GpL16-k0 (antibody, human IgG1, kappa)
heavy 1: not shown
heavy 2: not shown
light: B1 light
notes: as for B1
B5: GpH7-A5/GpH7-B3 variant P331_03V/GpL16-k0 (antibody, human IgG1, kappa)
heavy 1: not shown
heavy 2: not shown
light: B1 light
notes: as for B1
B6: GpH7-A5/GpH7-B3 variant N325_01G/GpL16-k0 (antibody, human IgG1, kappa)
heavy 1: not shown
heavy 2: not shown
light: B1 light
notes: Heterodimerized anti-glypican-3 IgG1; mutation in the GpH7-B3 H chain only; also called He Ab
B7: GpH7-A5/GpH7-B3 variant K326_06M/GpL16-k0 (antibody, human IgG1, kappa)
heavy 1: not shown
heavy 2: not shown
light: B1 light
notes: as for B6
B8: GpH7-A5/GpH7-B3 variant K326_07I/GpL16-k0 (antibody, human IgG1, kappa)
heavy 1: not shown
heavy 2: not shown
light: B1 light
notes: as for B6
B9: GpH7-A5/GpH7-B3 variant K326_08L/GpL16-k0 (antibody, human IgG1, kappa)
heavy 1: not shown
heavy 2: not shown
light: B1 light
notes: as for B6
B10: GpH7-A5/GpH7-B3 variant K326_09D/GpL16-k0 (antibody, human IgG1, kappa)
heavy 1: not shown
heavy 2: not shown
light: B1 light
notes: as for B6
B11: GpH7-A5/GpH7-B3 variant K326_10E/GpL16-k0 (antibody, human IgG1, kappa)
heavy 1: not shown
heavy 2: not shown
light: B1 light
notes: as for B6
B12: GpH7-A5/GpH7-B3 variant K326_14T/GpL16-k0 (antibody, human IgG1, kappa)
heavy 1: not shown
heavy 2: not shown
light: B1 light
notes: as for B6
B13: GpH7-A5/GpH7-B3 variant K326_15Y/GpL16-k0 (antibody, human IgG1, kappa)
heavy 1: not shown
heavy 2: not shown
light: B1 light
notes: as for B6
B14: GpH7-A5/GpH7-B3 variant K334_20W/GpL16-k0 (antibody, human IgG1, kappa)
heavy 1: not shown
heavy 2: not shown
light: B1 light
notes: as for B6
B15: GpH7-A5/GpH7-B3 variant S337_15Y/GpL16-k0 (antibody, human IgG1, kappa)
heavy 1: not shown
heavy 2: not shown
light: B1 light
notes: as for B6
B16: GpH7-A5/GpH7-B3 variant S337_18N/GpL16-k0 (antibody, human IgG1, kappa)
heavy 1: not shown
heavy 2: not shown
light: B1 light
notes: as for B6

Molecular target: T1, FcγRIIb
Assay: SPR (Biacore), antibody captured, FcγR as analyte; binding as % of GpH7-A5/GpH7-B3/GpL16-k0

Going from B1 to B2, the He/Con_2b falls from 160 % of control to 149 % of control.

Going from B3 to B4, the He/Con_2b falls from 177 % of control to 169 % of control.

For B5, the He/Con_2b was 119 % of control.

Molecular target: T4, FcγRIa (human, UniProt P12314 16-292)
T4 construct: extracellular domain; also called FcgRI; 1a; not shown: His tag at the C terminus
T4 sequence (P12314 16-292): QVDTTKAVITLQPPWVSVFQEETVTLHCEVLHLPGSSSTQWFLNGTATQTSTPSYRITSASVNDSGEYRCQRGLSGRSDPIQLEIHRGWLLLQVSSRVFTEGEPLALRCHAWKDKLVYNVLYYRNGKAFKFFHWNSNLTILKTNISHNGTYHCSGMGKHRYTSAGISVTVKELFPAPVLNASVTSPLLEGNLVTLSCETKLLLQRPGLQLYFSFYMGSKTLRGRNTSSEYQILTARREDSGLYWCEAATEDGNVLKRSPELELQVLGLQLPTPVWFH
Assay: as above

Compared with B1, B2 is lower in He/Con_1a: 99.4 % of control for the first, 99 % of control for the second.

Going from B3 to B4, the He/Con_1a falls from 96.8 % of control to 93.8 % of control.

B5 was tested, and the He/Con_1a was 92 % of control.

Molecular target: T2, FcγRIIa H
Assay: SPR (Biacore); He/Con_2aH divided by He/Con_2b (FcγRIIb) of the same antibody

Compared with B6, B7 is higher in He_2aH/2b: 0.56 ratio for the first, 0.63 ratio for the second.

Going from B8 to B9, the He_2aH/2b rises from 0.5 ratio to 0.52 ratio.

Compared with B10, B11 is lower in He_2aH/2b: 0.57 ratio for the first, 0.51 ratio for the second.

Compared with B12, B13 is lower in He_2aH/2b: 0.77 ratio for the first, 0.62 ratio for the second.

Molecular target: T4, FcγRIa
Assay: SPR (Biacore); He/Con_1a (FcγRIa) divided by He/Con_2b (FcγRIIb)

First: B1
Second: B2
The “Ia/IIb He_1a/2b” value of the first is lower: 0.62 ratio for the first, 0.66 ratio for the second.

Going from B3 to B4, the “Ia/IIb He_1a/2b” value rises from 0.55 ratio to 0.56 ratio.

With B5 the “Ia/IIb He_1a/2b” value was 0.78 ratio.

Molecular target: T1, FcγRIIb
Assay: SPR (Biacore), antibody captured, FcγR as analyte; binding as % of GpH7-A5/GpH7-B3/GpL16-k0
Remark: another data set of the same source

First: B1
Second: B2
The He/Con_2b of the first is higher: 160 % of control for the first, 149 % of control for the second.

Compared with B3, B4 is lower in He/Con_2b: 177 % of control for the first, 169 % of control for the second.

In the case of B5, the He/Con_2b is reported as 119 % of control.

Molecular target: T4, FcγRIa
Assay: as above
Remark: another data set of the same source

Compared with B1, B2 is lower in He/Con_1a: 99.4 % of control for the first, 99 % of control for the second.

Compared with B3, B4 is lower in He/Con_1a: 96.8 % of control for the first, 93.8 % of control for the second.

With B5 the He/Con_1a was 92 % of control.

Molecular target: T3, FcγRIIb
Assay: SPR (Biacore), captured antibody, FcγR analyte; relative to GpH7-A5/GpH7-B3/GpL16-k0 = 100
Protocol: (§1) The heterodimerized antibodies He Abs in which one of the H chains was introduced with an alteration were assayed for their binding activities to each activating FcγR and inhibitory FcγR according to the method described in Example 4. […] The activating FcγRs in FIGS. 26, 27, 28, and 29 are FcγRIa, FcγRIIa (R), FcγRIIa (H), and FcγRIIIa, respectively.
(§2) Analysis of interaction between objective antibody and the FcγR was carried out using Biacore T100 (GE Healthcare). HBS-EP+ (GE Healthcare) was used as the running buffer, and the measurement temperature was set to 25° C. Chips produced by immobilizing the antigen peptide by the amine coupling method to a Series S Sencor Chip CM5 (GE Healthcare), or alternatively, chips produced by allowing preliminarily biotinylated antigen peptides to interact with and immobilize onto a Series S Sensor Chip SA (certified) (GE Healthcare) were used. Antibodies of interest were captured onto an antigen peptide-immobilized chip, and allowed to interact to each FcγR diluted with running buffer. To regenerate and repeatedly use the chip, the antibodies captured on the chip were washed off by reacting 10 mM glycine-HCl, pH 1.5.

First: B6
Second: B7
The He/Con_2b of the first is lower: 101 relative (control = 100) for the first, 165 relative (control = 100) for the second.

First: B8
Second: B9
The He/Con_2b of the first is higher: 199 relative (control = 100) for the first, 177 relative (control = 100) for the second.

Going from B10 to B11, the He/Con_2b rises from 193 relative (control = 100) to 200 relative (control = 100).

Going from B12 to B13, the He/Con_2b rises from 150 relative (control = 100) to 159 relative (control = 100).

Going from B14 to B15, the He/Con_2b falls from 104 relative (control = 100) to 100 relative (control = 100).

In the case of B16, the He/Con_2b is reported as 103 relative (control = 100).

Molecular target: T2, FcγRIIa H
Assay: as above
Protocol: as §1, §2

Going from B6 to B7, the He/Con_2aH rises from 56.8 relative (control = 100) to 103 relative (control = 100).

Going from B8 to B9, the He/Con_2aH falls from 100 relative (control = 100) to 92.7 relative (control = 100).

Compared with B10, B11 is lower in He/Con_2aH: 110 relative (control = 100) for the first, 102 relative (control = 100) for the second.

First: B12
Second: B13
The He/Con_2aH of the first is higher: 114 relative (control = 100) for the first, 98.3 relative (control = 100) for the second.

First: B14
Second: B15
The He/Con_2aH of the first is lower: 97.6 relative (control = 100) for the first, 99.4 relative (control = 100) for the second.

With B16 the He/Con_2aH was 99.8 relative (control = 100).
